Reference: patent publication US20130317087A1 (UNIVERSITY OF ROCHESTER, published 2013)
Each block holds one binder with its values, some of them ahead of it.

Experiments:
hSTAU1^55-HA3 [1] = molecular target: T1, hSTAU1^55-HA3 (human, UniProt O95793-2 1-496); assay: anti-FLAG and anti-HA co-IP from HEK293T lysates with RNase A
T1 construct: also called STAU1-HA3
T1 sequence (looked up): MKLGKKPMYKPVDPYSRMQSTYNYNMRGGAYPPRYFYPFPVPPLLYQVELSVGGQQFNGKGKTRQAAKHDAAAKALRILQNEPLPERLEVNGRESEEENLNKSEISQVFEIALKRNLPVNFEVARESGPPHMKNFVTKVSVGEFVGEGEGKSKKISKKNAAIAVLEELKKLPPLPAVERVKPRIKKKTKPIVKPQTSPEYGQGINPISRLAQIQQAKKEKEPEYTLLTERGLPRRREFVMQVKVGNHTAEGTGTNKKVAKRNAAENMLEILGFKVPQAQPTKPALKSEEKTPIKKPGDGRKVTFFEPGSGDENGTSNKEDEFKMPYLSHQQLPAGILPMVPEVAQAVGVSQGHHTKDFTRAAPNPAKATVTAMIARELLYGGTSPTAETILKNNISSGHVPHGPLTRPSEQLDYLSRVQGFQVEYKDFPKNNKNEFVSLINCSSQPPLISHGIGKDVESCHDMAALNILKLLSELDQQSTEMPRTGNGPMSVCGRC
Excerpt: (§1) To test this idea, HEK293T cells were transiently transfected with hSTAU1⁵⁵-HA₃ and one of three siRNA-resistant (R) plasmids that produce either hSTAU1^{55(R)}-FLAG, hSTAU1^{55(R)}Δ(C-Term)-FLAG or hSTAU1^{55(R)}Δ(SSM-‘RBD’5)-FLAG, each of which was expressed at the level of cellular hSTAU 1. hSTAU1^{55(R)}Δ(C-Term)-FLAG lacks all amino acids C-terminal to ‘RBD’5 Δ1. Cell lysates were immunoprecipitated in the presence of RNaseA using anti-FLAG or, as a negative control, mIgG.

cellular hUPF1 = molecular target: T2, cellular hUPF1 (human, UniProt Q92900-2 1-1118, limits assumed); assay: anti-FLAG co-IP from HEK293T lysates with RNase A, quantitated western blot
T2 construct: Endogenous protein detected by western blotting
T2 sequence (looked up): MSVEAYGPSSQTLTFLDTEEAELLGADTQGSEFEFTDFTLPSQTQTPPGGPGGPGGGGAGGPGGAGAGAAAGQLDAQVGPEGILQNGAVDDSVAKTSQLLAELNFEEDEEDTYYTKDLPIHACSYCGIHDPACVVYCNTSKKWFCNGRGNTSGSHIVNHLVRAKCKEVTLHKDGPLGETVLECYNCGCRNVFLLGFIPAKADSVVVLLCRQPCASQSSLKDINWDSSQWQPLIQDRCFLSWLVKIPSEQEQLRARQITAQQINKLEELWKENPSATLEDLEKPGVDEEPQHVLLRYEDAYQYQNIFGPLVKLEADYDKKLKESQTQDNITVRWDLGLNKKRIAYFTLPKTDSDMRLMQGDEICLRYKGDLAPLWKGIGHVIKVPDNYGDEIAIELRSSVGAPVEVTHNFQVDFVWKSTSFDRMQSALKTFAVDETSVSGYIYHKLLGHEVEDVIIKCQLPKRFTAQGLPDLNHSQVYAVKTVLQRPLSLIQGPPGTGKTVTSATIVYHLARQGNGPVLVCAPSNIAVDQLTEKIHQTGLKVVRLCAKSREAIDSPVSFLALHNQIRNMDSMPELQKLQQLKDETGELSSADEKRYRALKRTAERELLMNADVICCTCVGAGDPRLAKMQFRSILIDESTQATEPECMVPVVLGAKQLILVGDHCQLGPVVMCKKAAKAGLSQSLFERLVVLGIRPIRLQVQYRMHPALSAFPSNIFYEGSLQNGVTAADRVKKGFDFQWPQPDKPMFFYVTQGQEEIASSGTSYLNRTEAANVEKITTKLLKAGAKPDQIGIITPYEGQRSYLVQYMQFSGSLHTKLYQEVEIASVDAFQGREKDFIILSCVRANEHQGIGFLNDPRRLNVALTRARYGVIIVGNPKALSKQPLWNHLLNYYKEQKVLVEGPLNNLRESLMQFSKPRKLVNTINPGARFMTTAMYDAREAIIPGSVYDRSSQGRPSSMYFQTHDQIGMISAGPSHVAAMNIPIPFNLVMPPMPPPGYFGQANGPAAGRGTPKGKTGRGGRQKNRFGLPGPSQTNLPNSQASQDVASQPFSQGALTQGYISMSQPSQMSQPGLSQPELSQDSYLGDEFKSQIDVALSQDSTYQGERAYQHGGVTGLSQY
Excerpt: as §1
(§2) The level of hSTAU1⁵⁵-HA₃ or cellular hUPF1 that co-immunoprecipitated with hSTAU1^{55(R)}Δ(SSM-‘RBD’5)—FLAG was only ˜10% the level of, respectively, hSTAU1⁵⁵-HA₃ or cellular hUPF1 that co-immunoprecipitated with hSTAU1^{55(R)}-FLAG or hSTAU1^{55(R)}Δ(C-Term)-FLAG.

hSTAU1^55-HA3 [2] = molecular target: T1, hSTAU1^55-HA3; assay: as above
Excerpt: as §1, §2

hSTAU1^55-HA3 [3] = molecular target: T1, hSTAU1^55-HA3; assay: anti-HA co-IP (reverse direction) from HEK293T lysates, quantitated western blot
Excerpt: as §1, with “Cell lysates were immunoprecipitated in the presence of RNaseA using anti-FLAG or, as a negative control, mIgG.” left out
as §2

[4] = molecular target: the molecule itself; assay: gel filtration of the E. coli-made protein
Description: Since hSTAU1^{55(R)}Δ(SSM-‘RBD’5)-FLAG still had residual dimerization activity (10% that of hSTAU1^{55(R)}-FLAG), and in view of reports that hSTAU1 ‘RBD’2 amino acids 37-79 can interact with full-length hSTAU1, the ability of E. coli-produced ‘RBD’2-RBD3 amino acids 43-173 to dimerize was assayed.
Size standards were prepared by dissolving dried proteins in 2 ml of GF buffer containing 2.97 mM DTT. Proteins consisted of 3.8 mg of conalbumin (75 kDa), 2.3 mg carbonic anhydrase (29 kDa) and 6.7 mg aprotinin(6.5 kDa), each from the Low Molecular Weight Gel Filtration Calibration Kit (GE Healthcare; #28-4038-41), and 6 mg of lysozyme (14.3 kDa) (Sigma; #L6876-10G). The dissolved solution (1 ml, determined using a 1 ml loop) was loaded onto a 120 ml HiLoad™Superdex™ 200 16/60 prep-grade column (GE Healthcare) and separated at a 1 ml/min flow rate using the BioLogicDuoFlow™ FPLC system. For size estimations, gel-filtration of SSM-‘RBD’5 (WT), SSM-‘RBD’5 (E424H, D427V) and ‘RBD’2-RBD3 was performed as described for the size standards. SSM-‘RBD’5 (WT) was loaded at 8 mg/ml, SSM-‘RBD’5 (E424H, D427V) was loaded, and ‘RBD’2-RBD3 was loaded at 6 mg/ml.

[5] = molecular target: the molecule itself; assay: sedimentation velocity analytical ultracentrifugation, rapid monomer-dimer equilibrium model
Description: After purifying GST-hSTAU1⁵⁵(367-476) from E. coli and removing the GST tag, SSM-‘RBD’5 migrated during gel filtration at the size of a dimer Sedimentation velocity determinations using analytical ultracentrifugation confirmed that the average weight distribution of SSM-‘RBD’5 shifted to lower Svedberg values at lower concentrations (FIG. 10C).
hSTAU1-SSM-‘RBD’5 was purified as above, except the final GF buffer contained 2.97 mM DTT, and submitted to the University of Connecticut Analytical Ultracentrifugation Facility for sedimentation velocity analysis. […] Measuring refractive index rather than absorbance was especially useful considering the low extinction coefficient at A₂₈₀ that typifies SSM-‘RBD’5; which lacks tryptophan residues. […] Data were analyzed using: 1) DcDt+, version 2.0.9 (Philo, 2000; 2006), to determine the sedimentation coefficient distribution that was independent of a model, 2) Sedfit, version 10.09beta (Schuck, 2000), to produce a model-based continuous sedimentation coefficient distribution using the Lamm equation or c(s) to identify the number of species (e.g., monomers vs dimers) in solution, and 3) Sedanal, version 5.60 to combine datasets from the three highest of four concentrations tested, perform a global analysis, and determine the protein association model using the Lamm equation.

B3: hSTAU1 ‘RBD’2-RBD3 (amino acids 43-173) (other, human, UniProt O95793-2 43-173, looked up)
chain: PLLYQVELSVGGQQFNGKGKTRQAAKHDAAAKALRILQNEPLPERLEVNGRESEEENLNKSEISQVFEIALKRNLPVNFEVARESGPPHMKNFVTKVSVGEFVGEGEGKSKKISKKNAAIAVLEELKKLPP
notes: range 43-173; Made in E. coli from pGEX-6p-1 and cut with PreScission Protease; also called product of pGEX-6p-1-hSTAU1-‘RBD’2-RBD3
binding result [4]: binds

B4: hSTAU1 SSM-‘RBD’5 (hSTAU1^55 amino acids 367-476, GST tag removed) (other)
chain: GPLGSKATVTAMIARELLYGGTSPTAETILKNNISSGHVPHGPLTRPSEQLDYLSRVQGFQVEYKDFPKNNKNEFVSLINCSSQPPLISHGIGKDVESCHDMAALNILKLLSELD
notes: Made in E. coli as a GST fusion from pGEX-6p-1, GST cleaved off; In monomer-dimer equilibrium; also called SSM-‘RBD’5(WT); hSTAU1^55(367-476)
Kd [5]: 79 µM

More lines, now with the values ahead:

binding result (hSTAU1^55-HA3 [1]): binds
B1: hSTAU1^55(R)-FLAG (other, human, UniProt O95793-2 1-496, looked up, not shown: small tags and cut ends)
chain: T1 sequence (looked up)
notes: Expressed in HEK293T cells at the level of cellular hSTAU1; also called product of pcI-neo-hSTAU1^55(R)-FLAG

level of co-immunoprecipitated cellular hUPF1 relative to that with hSTAU1^55(R)-FLAG or hSTAU1^55(R)Δ(C-Term)-FLAG (cellular hUPF1): ~10%
level of co-immunoprecipitated hSTAU1^55-HA3 relative to that with hSTAU1^55(R)-FLAG or hSTAU1^55(R)Δ(C-Term)-FLAG (hSTAU1^55-HA3 [2]): ~10%
level co-immunoprecipitated with hSTAU1^55-HA relative to hSTAU1^55(R)-FLAG or hSTAU1^55(R)Δ(C-Term)-FLAG (hSTAU1^55-HA3 [3]): ~10%
B2: hSTAU1^55(R)Δ(SSM-‘RBD’5)-FLAG (other, human, UniProt O95793-2 1-363, looked up, not shown: small tags and cut ends)
chain: MKLGKKPMYKPVDPYSRMQSTYNYNMRGGAYPPRYFYPFPVPPLLYQVELSVGGQQFNGKGKTRQAAKHDAAAKALRILQNEPLPERLEVNGRESEEENLNKSEISQVFEIALKRNLPVNFEVARESGPPHMKNFVTKVSVGEFVGEGEGKSKKISKKNAAIAVLEELKKLPPLPAVERVKPRIKKKTKPIVKPQTSPEYGQGINPISRLAQIQQAKKEKEPEYTLLTERGLPRRREFVMQVKVGNHTAEGTGTNKKVAKRNAAENMLEILGFKVPQAQPTKPALKSEEKTPIKKPGDGRKVTFFEPGSGDENGTSNKEDEFKMPYLSHQQLPAGILPMVPEVAQAVGVSQGHHTKDFTRAAP
notes: domain: Δ(SSM-‘RBD’5); End at residue 363 is read from the primer; also called product of pcI-neo-hSTAU1^55(R)Δ(SSM-‘RBD’5)-FLAG

binding result (hSTAU1^55-HA3 [1]): binds
B5: hSTAU1^55(R)Δ(C-Term)-FLAG (other, human, UniProt O95793-2 1-422, looked up, not shown: small tags and cut ends)
chain: MKLGKKPMYKPVDPYSRMQSTYNYNMRGGAYPPRYFYPFPVPPLLYQVELSVGGQQFNGKGKTRQAAKHDAAAKALRILQNEPLPERLEVNGRESEEENLNKSEISQVFEIALKRNLPVNFEVARESGPPHMKNFVTKVSVGEFVGEGEGKSKKISKKNAAIAVLEELKKLPPLPAVERVKPRIKKKTKPIVKPQTSPEYGQGINPISRLAQIQQAKKEKEPEYTLLTERGLPRRREFVMQVKVGNHTAEGTGTNKKVAKRNAAENMLEILGFKVPQAQPTKPALKSEEKTPIKKPGDGRKVTFFEPGSGDENGTSNKEDEFKMPYLSHQQLPAGILPMVPEVAQAVGVSQGHHTKDFTRAAPNPAKATVTAMIARELLYGGTSPTAETILKNNISSGHVPHGPLTRPSEQLDYLSRVQGFQ
notes: domain: lacks all amino acids C-terminal to ‘RBD’5 α1; End at residue 422 is read from the primer; also called product of pcI-neo-hSTAU1^55(R)Δ(C-Term)-FLAG
